Patent publication US20190015483A1 (CSL BEHRING RECOMBINANT FACILITY, published 2019)
Residue numbers refer to the chain shown, from its start. Names may count otherwise.

T1: recombinant Factor VIII (CSL627, rVIII-SingleChain) (Homo sapiens (Human), UniProt P00451 20-2351)
T1 construct: also called FVIII
T1 sequence: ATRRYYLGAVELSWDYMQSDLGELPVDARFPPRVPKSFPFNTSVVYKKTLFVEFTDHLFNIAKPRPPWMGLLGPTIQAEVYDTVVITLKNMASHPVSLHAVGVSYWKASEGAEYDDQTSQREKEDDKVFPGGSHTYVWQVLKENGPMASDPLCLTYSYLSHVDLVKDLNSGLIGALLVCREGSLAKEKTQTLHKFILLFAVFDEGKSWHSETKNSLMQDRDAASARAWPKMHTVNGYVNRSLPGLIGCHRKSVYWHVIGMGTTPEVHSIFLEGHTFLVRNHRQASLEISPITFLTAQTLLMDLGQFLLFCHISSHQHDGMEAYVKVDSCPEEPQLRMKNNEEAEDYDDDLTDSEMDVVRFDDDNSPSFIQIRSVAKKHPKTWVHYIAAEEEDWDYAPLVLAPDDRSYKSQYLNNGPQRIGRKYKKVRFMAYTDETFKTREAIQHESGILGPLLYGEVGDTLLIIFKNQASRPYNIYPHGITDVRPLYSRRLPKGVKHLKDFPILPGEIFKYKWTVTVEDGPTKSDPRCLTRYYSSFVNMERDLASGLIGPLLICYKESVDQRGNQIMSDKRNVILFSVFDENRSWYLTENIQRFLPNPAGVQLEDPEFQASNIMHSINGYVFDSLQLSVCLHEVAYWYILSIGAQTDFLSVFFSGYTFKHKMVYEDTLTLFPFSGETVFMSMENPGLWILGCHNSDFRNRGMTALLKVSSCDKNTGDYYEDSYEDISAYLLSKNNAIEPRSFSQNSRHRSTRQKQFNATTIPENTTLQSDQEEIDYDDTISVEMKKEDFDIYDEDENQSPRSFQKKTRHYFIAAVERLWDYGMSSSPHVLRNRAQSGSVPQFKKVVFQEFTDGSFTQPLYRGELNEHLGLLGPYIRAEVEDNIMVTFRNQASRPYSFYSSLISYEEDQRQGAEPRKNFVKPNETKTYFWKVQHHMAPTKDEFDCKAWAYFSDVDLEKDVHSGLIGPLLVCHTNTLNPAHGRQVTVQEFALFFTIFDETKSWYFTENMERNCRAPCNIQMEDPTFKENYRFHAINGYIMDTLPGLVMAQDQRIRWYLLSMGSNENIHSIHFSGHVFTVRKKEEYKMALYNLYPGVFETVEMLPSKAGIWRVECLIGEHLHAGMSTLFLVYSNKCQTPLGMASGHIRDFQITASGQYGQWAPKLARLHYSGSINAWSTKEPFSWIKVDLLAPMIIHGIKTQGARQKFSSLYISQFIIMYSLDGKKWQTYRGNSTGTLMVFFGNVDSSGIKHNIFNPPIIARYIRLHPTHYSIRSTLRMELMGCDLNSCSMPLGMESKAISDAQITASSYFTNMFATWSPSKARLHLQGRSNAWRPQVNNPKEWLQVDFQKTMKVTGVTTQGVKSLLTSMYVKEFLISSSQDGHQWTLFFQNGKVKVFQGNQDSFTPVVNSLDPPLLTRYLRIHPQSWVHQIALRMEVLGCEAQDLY

B1: Hu-vWF[764-1270]-8His S766Y-K773S (other)
chain: SLYCRPPMVSLVCPADNLRAEGLECTKTCQNYDLECMSMGCVSGCLCPPGMVRHENRCVALERCPCFHQGKEYAPGETVKIGCNTCVCRDRKWNCTDHVCDATCSTIGMAHYLTFDGLKYLFPGECQYVLVQDYCGSNPGTFRILVGNKGCSHPSVKCKKRVTILVEGGEIELFDGEVNVKRPMKDETHFEVVESGRYIILLLGKALSVVWDRHLSISVVLKQTYQEKVCGLCGNFDGIQNNDLTSSNLQVEEDPVDFGNSWKVSSQCADTRKVPLDSSPATCHNNIMKQTMVDSSCRILTSDVFQDCNKLVDPEPYLDVCIYDTCSCESIGDCACFCDTIAAYAHVCAQHGKVVTWRTATLCPQSCEERNLRENGYECEWRYNSCAPACQVTCQHPEPLACPVQCVEGCHAHCPPGKILDELLQTCVDPEDCPVCEVAGRRFASGKKVTLNPSDPEHCQICHCDVVNLTCEACQEPGGLVVPPTDAPVSPTTLYVEDISEPPLHDFHHHHHHHH
B2: Hu-vWF[764-1270]-8His S766Y-K773V (other)
chain: B1 chain with S10V
B3: Hu-vWF[764-1270]-8His S766Y-K773Y (other)
chain: B1 chain with S10Y
B4: Hu-vWF[764-1270]-8His S766Y-K773W (other)
chain: B1 chain with S10W
B5: Hu-vWF[764-1270]-8His S766Y-K773N (other)
chain: B1 chain with S10N
B6: Hu-vWF[764-1270]-8His S766Y-K773R (other)
chain: B1 chain with S10R
B7: Hu-vWF[764-1270]-8His S766Y-K773P (other)
chain: B1 chain with S10P
B8: Hu-vWF[764-1270]-8His S766Y-K773T (other)
chain: B1 chain with S10T
B9: Hu-vWF[764-1270]-8His S766Y-K773M (other)
chain: B1 chain with S10M
B10: Hu-vWF[764-1270]-8His S766Y-K773Q (other)
chain: B1 chain with S10Q
B11: Hu-vWF[764-1270]-8His S764A/S766Y (other)
chain: B1 chain with S1A, S10K
B12: Hu-vWF[764-1270]-8His S764E/S766Y (other)
chain: B1 chain with S1E, S10K
B13: Hu-vWF[764-1270]-8His S764D/S766Y (other)
chain: B1 chain with S1D, S10K
B14: Hu-vWF[764-1270]-8His S764H/S766Y (other)
chain: B1 chain with S1H, S10K
B15: Hu-vWF[764-1270]-8His S764F/S766Y (other)
chain: B1 chain with S1F, S10K
B16: Hu-vWF[764-1270]-8His S764G/S766Y (other)
chain: B1 chain with S1G, S10K

The binders below were run against T1, recombinant Factor VIII (CSL627, …) (assay: SPR, anti-His capture).
Procedure: (§1) Binding kinetics were investigated by surface plasmon resonance using a Biacore 4000 biosensor at 37° C. Each mutant was captured from cell culture medium to a density of 40-150 RU on a CM-5 sensor chip pre-immobilised with anti-His antibody (14,000 RU). In an initial screening study, FVIII was injected over the captured mutants for 5 minutes at 1 nM and dissociation monitored for 5 minutes.
(§2) All sensorgrams were double referenced by subtraction of signals from a reference spot (containing only immobilised anti His antibody) and from a blank injection. Binding kinetics were determined by fitting the double referenced sensorgrams to a 1:1 kinetic model.

Kd [nM] | koff [s⁻¹] | kon [M⁻¹ s⁻¹] | Binder
0.0785 | 0.00138 | 1.75e+07 | B1
0.0494 | 0.000861 | 1.74e+07 | B2
0.18 | 0.00404 | 2.24e+07 | B3
0.134 | 0.00393 | 2.93e+07 | B4
0.0984 | 0.00507 | 5.15e+07 | B5
0.0335 | 0.000469 | 1.4e+07 | B6
0.112 | 0.00243 | 2.16e+07 | B7
0.0224 | 0.000269 | 1.2e+07 | B8
0.0335 | 0.000659 | 1.97e+07 | B9
0.0393 | 0.000939 | 2.39e+07 | B10

Molecular target: T1, recombinant Factor VIII (CSL627, …)
Assay: SPR, anti-His capture
Remark: another data set of the same source
Procedure: as §1, §2

Kd [nM] | koff [s⁻¹] | kon [M⁻¹ s⁻¹] | Binder
0.00242 | 7.21e-05 | 2.98e+07 | B11
0.00387 | 7.64e-05 | 1.97e+07 | B12
0.00312 | 0.000118 | 3.78e+07 | B13
0.00639 | 0.000292 | 4.56e+07 | B14
0.0122 | 9.36e-05 | 7.68e+06 | B15
0.00196 | 2.69e-05 | 1.37e+07 | B16
